Patent US11707511B2, “Vaccine compositions and methods of using the same” (The Board of Supervisors of Louisiana State University and …, priority 2017, dated 2023)

B1: 10E7E2: IgG1 mAb of hybridoma 10E7E2, specific for GPV-P3; VH SEQ ID NO: 72, VL SEQ ID NO: 74 (antibody, V domains shown)
VH: QVQLKQSGPGLVQPSQSLSITCTVSGFSLTSYGVHWVRQSPGKGLEWLGVIWSGGTTDYNAAFISRLSISKDNSKSQVFFKMNSLQANDTAIYYCARGGHRGFAYWGQGTLVTVSA
VL: DIVMTQSHKFMSTSVGDRVSITCKASQDVGTAVAWYQQKPGQSPKLLIYWASTRHTGVPDRFTGSGSGTDFTLTISNVQSEDLADYFCQQYSSYPLTFGAGTKLELK
B2: 1D4H5: IgG1 mAb of hybridoma 1D4H5, specific for GPV-M1; VH SEQ ID NO: 64, VL SEQ ID NO: 66 (antibody, V domains shown)
VH: MYLGLNCVFIVFLLKGVQSEVKLEESGGGLVQPGGSMKLSCVASGFTFSNYWMNWVRQSPEKGLEWVAEIRLKSNNYATHYAESVKGRFTISSDDSKSSVYLQMNNLRAEDTGIYYCSTGNYWGQGTTLTVSS
VL: MDFQMQIISLLLISVTVIVSNGEIVLTQSPTTMAASPGEKITITCSASSTISSNYLHWYQQKPGFSPKLLIYRTSNLASGVPARFSGSGSGTSYSLTIGTMEAEDVATYYCQQGSTISRTFGSGTKLEIK

Key:
[1] = tested on: C. parapsilosis ATCC MYA-4646; experiment: Passive transfer of mAbs, neutropenic mouse model of disseminated candidiasis by C. parapsilosis; assay type: in vivo; settings: Table 6; neutropenic BALB/c mice; mAb i.p. 4 h before 5×10^6 C. parapsilosis i.v.
Text: (§1) Induction of neutropenia. Although C. albicans remains the dominant disease-causing pathogen of this genus, rates of infections caused by non-albicans Candida (NAC) species are increasing. Among these Candida species, only C. albicans is pathogenic in the normal mouse model. To test vaccine and mAbs against non-albicans Candida spp, we have developed neutropenic murine models of disseminated infection by C. glabrata, C. tropicalis, and C. parapsilosis. Before challenge, BLAB/c mice were made neutropenic by intraperitoneal receipt of a 200 mg/kg dose of cyclophosphamide (CY; Sigma-Aldrich) at day −3. The i.p. injection (150 mg/kg) is repeated every 10 days after infection (i.e., at days 10, 20, 30, and 40 post-infection) in order to maintain low neutrophil counts for the entire experimental procedure. […] To evaluate leukocytopenia in these mice, blood samples were collected from tail veins 3 days after each CY or saline injection (n=10 in each group). Total leukocyte and differential cell counts were determined on a hemocytometer and by Wright-Giemsa staining. Body weights of the mice were also measured and compared for 14 days after the first CY or saline injection (n=10 in each group).
(§2) Fungal challenge dose and assessment ofprotection. Although C. albicans remains the dominant disease-causing pathogen of this genus, rates of infections caused by non-albicans Candida (NAC) species are increasing (18). Among these Candida species, only C. albicans is pathogenic in the normal mouse model (19,20). We have developed neutropenic murine models of disseminated infection by C. glabrata, C. tropicalis, and C. parapsilosis. […] In details, mice of different experimental groups (five mice per group) were intravenously infected with 5×10^6 viable C. parapsilosis ATCC MYA-4646 (A), 1×108 C. glabrata ATCC 2001 cells (B) and 1×107 C. tropicalis ATCC 28775 cells (C) in 0.1 ml DPBS. As controls, immunocompetent mice were challenged with the same dose of each Candida strain tested.
Passive transfer of MAbs by intraperitoneal (i.p.) route. The preventive effect of peptide-specific mAbs listed in Table 3 and Table 4 in naïve mice was examined by passive transfer experiments. Each mAb was appropriately diluted in DPBS to give a 40,000-100,000 ELISA titer against each corresponding specific peptide coated on the plate. For testing, mice received 0.5 ml of each mAb or 1 ml of two mAbs in combination (0.5 ml of each) intraperitoneally. Table 6 and Table 7 have listed all the peptide-specific mAb combinations that have been tested, as well as the protective efficacy of each mAb cocktail as compared to single mAb treatment. […] For animal groups that were challenged non-albicans candida species, determined optimal challenge doses were applied for each candida strain. […]

[2] = tested on: C. glabrata ATCC 2001; experiment: Passive transfer of mAbs, neutropenic mouse model of disseminated candidiasis by C. glabrata; assay type: in vivo; settings: for Protection against C. glabrata / Protection against C. glabrata (grade word): Table 6, neutropenic BALB/c mice, mAb i.p. 4 h before 1×10^8 C. glabrata i.v.; for Protection against Candida spp in mouse model: Against C. glabrata / Protection against Candida spp in mouse model: Against C. glabrata (grade word): Table 9
Text: as §1, §2
Passive transfer of MAbs by intraperitoneal (i.p.) route. The preventive effect of peptide-specific mAbs listed in Table 3 and Table 4 in naïve mice was examined by passive transfer experiments. Each mAb was appropriately diluted in DPBS to give a 40,000-100,000 ELISA titer against each corresponding specific peptide coated on the plate. For testing, mice received 0.5 ml of each mAb or 1 ml of two mAbs in combination (0.5 ml of each) intraperitoneally. Table 6 and Table 7 have listed all the peptide-specific mAb combinations that have been tested, as well as the protective efficacy of each mAb cocktail as compared to single mAb treatment. The negative control materials tested in mice were single mAb or DPBS. Control mice received 0.5 ml of the DPBS diluents or single mAb treatment. For each condition, 6- to 8-week-old female BALB/c mice (NCI) were given 0.5 ml of test mAb, or 1 ml two mAb cocktails or control materials intraperitoneally, followed 4 h later by 0.1 ml intravenously of defined lethal dose of yeast cells per milliliter of DPBS. Mice were divided into groups with five mice each and three independent experiments were carried out. In some experiments, mice were given the same dose of mAbs or control materials on every other day post-challenge for two weeks, as compared to the protective efficacy of mAb in combinations. All mice were sacrificed on day 50. For animal groups that were challenged non-albicans candida species, determined optimal challenge doses were applied for each candida strain.
The preventive effect of each universal peptide-specific mAb was examined by passive transfer experiments. Each mAb was appropriately diluted in DPBS (0.2 μg/μl) to give a 100,000 ELISA titer against each universal peptide coated on the plate. For testing, 5 mice of each tested group received 0.5 ml of each mAb intraperitoneally. The negative control materials tested in mice were mAbs absorbed with C. albicans yeast cells (3153A) and DPBS. […]

Molecule | Protection against C. parapsilosis [1] | Protection against C. parapsilosis (grade word) [1] | Protection against C. glabrata [2] | Protection against C. glabrata (grade word) [2] | Protection against Candida spp in mouse model: Against C. glabrata [2] | Protection against Candida spp in mouse model: Against C. glabrata (grade word) [2]
B1 | (60-80%) | High | (60-70%) | High | (60-70%) | High
B2 | (70-80%) | High | (70-90%) | High | (70-90%) | High
